Experimental data: PMC10245438, “Domino-like effect of C112R mutation on ApoE4 aggregation and its reduction by Alzheimer’s Disease drug candidate” (Molecular Neurodegeneration, 2023)
Substitutions are numbered along the chain they refer to.

B1: ApoE4 N-terminal domain (NTD) as seen in the crystals grown from His-MBP-ApoE4M (domain or fragment, human, UniProt P02649 40-183, looked up)
chain: SGQRWELALGRFWDYLRWVQTLSEQVQEELLSSQVTQELRALMDETMKELKAYKSELEEQLTPVAEETRARLSKELQAAQARLGADMEDVRGRLVQYRGEVQAMLGQSTEELRVRLASHLRKLRKRLLRDADDLQKRLAVYQAG
notes: apolipoprotein E, isoform ApoE4 (R112/R158), human; only residues ~22-165 (NTD) were obtained in the structures; the five mutations lie outside that range; also called ApoE4 NTD; source: E. coli BL21(DE3), purified (Ni-NTA, SEC; no cleavage step)
B2: APOE3M-AP (domain or fragment, human, UniProt P02649 42-317, looked up)
chain: QRWELALGRFWDYLRWVQTLSEQVQEELLSSQVTQELRALMDETMKELKAYKSELEEQLTPVAEETRARLSKELQAAQARLGADMEDVCGRLVQYRGEVQAMLGQSTEELRVRLASHLRKLRKRLLRDADDLQKRLAVYQAGAREGAERGLSAIRERLGPLVEQGRVRAATVGSLAGQPLQERAQAWGERLRARMEEMGSRTRDRLDEVKEQVAEVRAKLEEQAQQIRLQAEAAQARLKSRFEPLAEDMQRQWAGQVEKVQAAEGTSAAPVPSDNH
notes: apolipoprotein E, isoform ApoE3, human, residues 1-23 (helices N1 and N2) deleted, with the five monomerizing mutations; Truncated variants were cloned into NdeI/BamHI of pET-21b; also called ApoEM-AP; aggregation-prone ApoEM; source: E. coli BL21(DE3), purified (Ni-NTA, 3C protease cleavage, SEC); not shown: His, N-terminal, cleaved; thioredoxin, N-terminal, cleaved
B3: APOE4M-AP (domain or fragment, human, UniProt P02649 42-317, looked up)
chain: B2 chain with C89R
notes: apolipoprotein E, isoform ApoE4, human, residues 1-23 (helices N1 and N2) deleted, with the five monomerizing mutations; Truncated variants were cloned into NdeI/BamHI of pET-21b; also called ApoEM-AP; aggregation-prone ApoEM; source: E. coli BL21(DE3), purified (Ni-NTA, 3C protease cleavage, SEC); not shown: His, N-terminal, cleaved; thioredoxin, N-terminal, cleaved

Experiments:
[1] = target: the molecule itself; test: crystal structure; His-MBP-ApoE4M ~8 mg/ml, hanging drop vapour diffusion; four crystals in two space groups (P212121, P3121); dimeric unit of two NTDs (chains A and B) from crystal packing contacts
[2] = target: the molecule itself; test: dynamic light scattering; ~0.2 mg/ml, room temperature, size distribution after SEC purification

Row | Protein | binding result [1] | binding result [2]
1 | B1 | binds | –
2 | B2 | – | binds
3 | B3 | – | binds
